Results published in publication PMC6080896.
pKd: −log10 of the molar value.

Target: Venus-tagged CaV1.1 CI (Ven-CaV1.1 CI) (UniProt P07293)
Test: FRET or BRET

Sequence of Cer-tagged stac3 variant W[284]S (Native American myopathy) (natural protein) (Q96MF2 whole entry, change not shown): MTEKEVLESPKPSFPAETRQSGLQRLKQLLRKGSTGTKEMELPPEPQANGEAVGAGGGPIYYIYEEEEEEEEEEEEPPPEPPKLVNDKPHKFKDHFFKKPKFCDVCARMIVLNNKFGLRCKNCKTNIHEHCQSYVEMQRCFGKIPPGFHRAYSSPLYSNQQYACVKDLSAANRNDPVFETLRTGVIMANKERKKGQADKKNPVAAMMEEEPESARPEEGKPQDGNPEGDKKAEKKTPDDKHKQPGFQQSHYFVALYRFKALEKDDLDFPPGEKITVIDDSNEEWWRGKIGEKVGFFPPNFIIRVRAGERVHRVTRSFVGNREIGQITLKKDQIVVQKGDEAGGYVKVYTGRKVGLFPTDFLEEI
Sequence of Cer-tagged stac3 variant L[111]Δ (natural protein) (Q96MF2 whole entry, stated change not applied): as the sequence (Q96MF2 whole entry, change not shown) above
Sequence of Cer-tagged stac3 variant K[288]* (domain or fragment) (Q96MF2 whole entry, change not shown, the tested form may be a part): as the sequence (Q96MF2 whole entry, change not shown) above

| Substance | fold weakening of affinity against WT stac3 | further results |
| --- | --- | --- |
| Cer-tagged stac3 variant K[288]* (domain or fragment) | – | fold reduction of binding against WT stac3: 2 fold |
| Cer-tagged stac3 variant W[284]S (Native American myopathy) (natural protein) | 10 fold | – |
| Cer-tagged stac3 (wild type) (natural protein) | – | pKd: 6.40 |
| Cer-tagged stac3 variant L[111]Δ (natural protein) | 10 fold | – |
